Molecular target: T1, c-Met, the receptor for Hepatocyte Growth Factor (HGF) (human (endogenous in SNU-449 and …, UniProt P08581 25-1390))
T1 construct: precipitated with agarose-conjugated anti-c-Met antibody sc-161 AC; Endogenous receptor in a lysate; the co-IP blot detects total c-Met; also called c-Met Tyrosine Kinase; source: endogenous, Mahlavu whole cell lysate
Assay: co-IP; SNU-449 whole cell lysates (modified NP-40 buffer) precipitated with agarose-conjugated anti-c-Met antibody (sc-161 AC), blotted for CAV1 and c-Met; serum-starved cells untreated or exposed to HGF (40 ng/mL) for 15, 30 and 60 min; IgG as IP control
Conditions: partners not purified

T1 sequence (P08581 25-1390): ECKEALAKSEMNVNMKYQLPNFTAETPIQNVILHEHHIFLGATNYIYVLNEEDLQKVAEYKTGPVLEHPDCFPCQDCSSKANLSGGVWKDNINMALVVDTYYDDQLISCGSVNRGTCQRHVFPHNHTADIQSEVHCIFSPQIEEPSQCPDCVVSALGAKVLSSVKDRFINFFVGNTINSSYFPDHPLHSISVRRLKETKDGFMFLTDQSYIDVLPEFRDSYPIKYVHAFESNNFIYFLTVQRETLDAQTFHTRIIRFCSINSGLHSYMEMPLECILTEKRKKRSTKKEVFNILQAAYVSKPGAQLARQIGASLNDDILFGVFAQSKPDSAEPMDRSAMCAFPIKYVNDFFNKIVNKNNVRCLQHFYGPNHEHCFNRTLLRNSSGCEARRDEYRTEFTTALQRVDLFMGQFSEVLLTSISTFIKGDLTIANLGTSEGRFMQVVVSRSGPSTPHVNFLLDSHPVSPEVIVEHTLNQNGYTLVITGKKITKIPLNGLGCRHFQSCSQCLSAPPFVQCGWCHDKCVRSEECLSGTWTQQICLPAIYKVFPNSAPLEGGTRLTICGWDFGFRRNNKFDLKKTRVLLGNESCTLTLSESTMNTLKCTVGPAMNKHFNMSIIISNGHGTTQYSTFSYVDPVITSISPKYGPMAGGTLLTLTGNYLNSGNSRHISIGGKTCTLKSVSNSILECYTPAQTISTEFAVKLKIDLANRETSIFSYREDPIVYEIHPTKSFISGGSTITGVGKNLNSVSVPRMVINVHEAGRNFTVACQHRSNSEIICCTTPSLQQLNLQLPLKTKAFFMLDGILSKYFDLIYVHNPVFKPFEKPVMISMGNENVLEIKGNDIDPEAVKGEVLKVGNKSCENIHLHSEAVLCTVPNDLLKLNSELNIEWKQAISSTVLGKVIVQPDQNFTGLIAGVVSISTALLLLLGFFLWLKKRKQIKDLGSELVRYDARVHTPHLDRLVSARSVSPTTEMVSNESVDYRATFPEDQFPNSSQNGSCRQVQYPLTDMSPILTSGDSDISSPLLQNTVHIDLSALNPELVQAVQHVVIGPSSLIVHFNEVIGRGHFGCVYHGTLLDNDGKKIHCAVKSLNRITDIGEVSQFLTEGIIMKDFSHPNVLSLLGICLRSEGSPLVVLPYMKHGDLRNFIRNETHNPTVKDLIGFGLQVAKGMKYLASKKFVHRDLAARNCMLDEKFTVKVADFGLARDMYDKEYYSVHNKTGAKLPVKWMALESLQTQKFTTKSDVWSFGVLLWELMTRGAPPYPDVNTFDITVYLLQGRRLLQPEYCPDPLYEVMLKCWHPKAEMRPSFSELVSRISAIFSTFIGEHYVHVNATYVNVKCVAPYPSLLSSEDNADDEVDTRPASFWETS

fold increase in the amount co-immunoprecipitated upon HGF stimulation, against no HGF: ≥ 3 fold
B1: Caveolin 1 (CAV1) (natural protein, UniProt Q03135 1-178, looked up)
chain: MSGGKYVDSEGHLYTVPIREQGNIYKPNNKAMADELSEKQVYDAHTKEIDLVNRDPKHLNDDVVKIDFEDVIAEPEGTHSFDGIWKASFTTFTVTKYWFYRLLSALFGIPMALIWGIYFAILSFLHIWAVVPCIKSFLIEIQCISRVYSIYVHTVCDPLFEAVGKIFSNVRINLQKEI
notes: detected by Western blot with an antibody to CAV1; Endogenous protein; the co-IP blot detects total CAV1; source: endogenous, Mahlavu whole cell lysate

From paper PMC4141763, “Reciprocal Activating Crosstalk between c-Met and Caveolin 1 Promotes Invasive Phenotype in Hepatocellular Carcinoma” (PLoS ONE, 2014)
